Assay results published in patent publication US20110112279A1 (Genentech, published 2011).

B1: human STOP-1 short form (L94-K243) with C-terminal His tag, baculovirus expressed (ligand, not shown: small tags and cut ends)
chain: LRESFEESWTPNYKQCSWSSLNYGIDLGKIAECTFTKMRSNSALRVLFSGSLRLKCRNACCQRWYFTFNGAECSGPLPIEAIIYLDQGSPEMNSTINIHRTSSVEGLCEGIGAGLVDVAIWVGTCSDYPKGDASTGWNSVSRIIIEELPK
notes: also called #94-243; L94-K243-His
B2: human STOP-1, full length, C-terminal 8xHis tag (h762HIP; M1-K243-His), expressed in CHO-psgb cells (ligand)
chain: SEIPKGKQKAQLRQREVVDLYNGMCLQGPAGVPGRDGSPGANGIPGTPGIPGRDGFKGEKGECLRESFEESWTPNYKQCSWSSLNYGIDLGKIAECTFTKMRSNSALRVLFSGSLRLKCRNACCQRWYFTFNGAECSGPLPIEAIIYLDQGSPEMNSTINIHRTSSVEGLCEGIGAGLVDVAIWVGTCSDYPKGDASTGWNSVSRIIIEELPKHHHHHHHH
notes: The secreted protein purified from medium lacks the signal peptide; Light scattering: about 58% hexamer and 42% trimer; also called UNQ762; full length form

Tests used:
[1] = biological target: B1; assay: solution competition phage ELISA (762 S/S): short form coated, phage pre-incubated with short form STOP-1 in solution; IC50 is the STOP-1 concentration
Experimental: (§1) The wells were blocked by adding 65 ul 1% BSA for 30 minutes followed by 40 ul 1% Tween20 for another 30 minutes. Next, the wells were washed with PBS—0.05% Tween20 5 times. Various dilutions of F(ab) or F(ab)′₂ phage down to 0.1 O.D./ml in ELISA buffer (PBS—0.1% BSA and 0.05% Tween20) were added to the wells for 15 minutes at room temperature. The wells were then washed with PBS—0.05% Tween20 at least three times. 75 ul of HRP-conjugated anti-M13 antibody (Amersham, 1/5000 dilution with ELISA buffer) per well was added and incubated at room temperature for 30 minutes. The wells were washed again with PBS—0.05% Tween20 at least five times. Next, 100 ul/well of a 1:1 ratio of 3,3′,5,5′-tetramethylbenzidine (TMB) Peroxidase substrate and Peroxidase Solution B (H₂O₂) ((Kirkegaard-Perry Laboratories (Gaithersburg, Md.)) was added to the well and incubated for 5 minutes at room temperature. The reaction was stopped by adding 100 ul 1M Phosphoric Acid (H3PO₄) ((Kirkegaard-Perry Laboratories (Gaithersburg, Md.)) to each well. The optical density of the color in each well was determined using a standard ELISA plate reader at 450 nm. The dilutions of phage were plotted against the O.D. readings.
(§2) Third, a competition ELISA was performed. 96-well Nunc Maxisorp plates were coated with full length or short form human STOP-1 (2 ug/ml in PBS) at 4° C. overnight or at room temperature for 2 hours. The wells were blocked by adding 65 ul 1% BSA for 30 minutes followed by 40 ul 1% Tween20 for another 30 minutes. The wells were washed with PBS—0.05% Tween20 5 times. […] The unbound phage was assayed by transferring 75 ul of the well mixture to second 96-well plate pre-coated with full length or short form human STOP-1 and incubating at room temperature for 15 minutes. The wells of the second plate were washed with PBS—0.5% Tween20 at least three times. 75 ul of HRP-conjugated anti-M13 antibody ( 1/5000 dilution with ELISA buffer) per well was added and incubated at room temperature for 30 minutes. The wells were washed again with PBS—0.05% Tween20 at least five times.

[2] = biological target: B2; assay: solution competition phage ELISA (762 F/F): full length coated, phage pre-incubated with full length STOP-1 in solution; IC50 is the STOP-1 concentration
Experimental: as §1, §2

[3] = biological target: B2; assay: solution competition phage ELISA (762 S/F): short form coated, phage pre-incubated with full length STOP-1 in solution; IC50 is the STOP-1 concentration
Experimental: as §1, §2

[4] = biological target: B2; assay: blocking ELISA, legend of FIG. 22
Experimental: First, 96-well Nunc Maxisorp plates were coated with full length human STOP-1 (2 ug/ml in PBS) at 4° C. overnight or at room temperature for 2 hours. The wells were blocked by adding 65 ul 1% BSA for 30 minutes followed by 40 ul 1% Tween20 for another 30 minutes. Next, the wells were washed with PBS—0.05% Tween20 5 times. Various concentrations of S4 IgG (in ELISA buffer) were incubated in the wells for 30 minutes at room temperature. Then, S4 (Fab)-phage, S7 (F(ab)′₂)-phage, S9 (Fab)-phage, S16 (F(ab)′₂)-phage or F5 (F(ab)′₂)-phage were added to different wells for 10 minutes at a concentration that would normally produce 90% binding capacity in the absence of the S4 IgG antibody. The wells were washed with PBS—0.05% Tween20 5 times.
Binding was quantified by adding 75 ul/well of horse radish peroxidase (HRP)-conjugated anti-M13 antibody in PBS plus 0.5% BSA and 0.05% Tween20 at room temperature for 30 minutes (Sidhu et al., supra). […] Next, 100 ul/well of a 1:1 ratio of 3,3′,5,5′-tetramethylbenzidine (TMB) Peroxidase substrate and Peroxidase Solution B (H₂O₂) ((Kirkegaard-Perry Laboratories (Gaithersburg, Md.)) was added to the well. The reaction was stopped by adding 100 ul 1M Phosphoric Acid (H₃PO₄) ((Kirkegaard-Perry Laboratories (Gaithersburg, Md.)) to each well. The OD of the yellow color in each well was determined using a standard ELISA plate reader at 450 nm.

[5] = biological target: the molecule itself; assay: self-association; size exclusion chromatography with light scattering
Experimental: Full length STOP-1-HIS proteins or various truncations thereof were expressed in SF9 baculovirus-infected cells or CHO cells as described above. The proteins were purified from the media by using Ni-NTA agarose beads as discussed above. The baculoviral-expressed proteins S31-K243-His, E89-K243-His, or L94-K243-His were loaded onto an 8 mm×300 mm Shodex KW802.5 size exclusion column and eluted with 100 mM NH₄HCO₃, 200 mM NH₄Cl pH7.8 at a flow rate of 1 ml/ml. CHO-psgb expressed full length proteins were loaded onto an 8 mm×300 mm Shodex KW804 size exclusion column and eluted with 25 mM sodium phosphate, 500 mM NaCl at a flow rate of 1 ml/ml. CHO-psgb expressed proteins, M1-M54 fused to L94-K243-His, were loaded onto an 8 mm×300 mm Shodex KW802.5 size exclusion column and eluted with 25 mM sodium phosphate, 500 mM NaCl at a flow rate of 1 ml/ml.
The eluted protein was analyzed by an Agilent Model 1100 HPLC system with an Agilent multi wavelength detector (UV) connected to a Wyatt MiniDAWN laser light scattering (LS) instrument and a Wyatt Optilab differential refractometer (RI). The average molecular weight of the proteins or their aggregates in each peak was determined by selecting a peak and using the Zimm fitting method (Phillip J. Wyatt, (1993) Analytica Chimica Acta 272:1-40) with the Astra software package (Wyatt, USA). The percentage of aggregation was calculated from the integrated peak areas of the UV signal at 214 nm. See FIG. 6 and FIG. 7 for results.

Binder	IC50 [1] [nM]	IC50 [2] [nM]	IC50 [3] [nM]	binding result [5]	other results
S7 F(ab)'2 displayed on M13 phage (V0350-4-S7) (other, also called S7-F(ab)'2-phage; F(ab)'2-S7 phage) light: SDIQMTQSPSSLSASVGDRVTITCRASQDVSTAVAWYQQKPGKAPKLLIYSASFLYSGVPSRFSGSGSGTDFTLTISSLQPEDFATYYCQQSYTTPPTFGQGTKVEIKRTVAAPSVFIFPPSDEQLKSGTASVVCLLNNFYPREAKVQWKVDNALQSGNSQESVTEQDSKDSTYSLSSTLTLSKADYEKHKVYACEVTHQGLSSPVTKSFNRGECGASSGMADPNRFRGKDLA heavy: AYAEVQLVESGGGLVQPGGSLRLSCAASGFTISGSDIHWVRQAPGKGLEWVGRISPYGGNTNYADSVKGRFTISADTSKNTAYLQMNSLRAEDTAVYYCARVGGLKLLFDYWGQGTLVTVSSASTKGPSVFPLAPSSKSTSGGTAALGCLVKDYFPEPVTVSWNSGALTSGVHTFPAVLQSSGLYSLSSVVTVPSSSLGTQTYICNVNHKPSNTKVDKKVEPKSCDKTHG	35	2.7	4.7	–	–
S4 Fab displayed on M13 phage (V0350-2b-S4) (Fab, V domains shown, Fab on phage: the heavy chain (VH-CH1) is fused to M13 cP3 and the light chain carries a gD tag; also called S4-Fab phage; S4 (Fab)-phage) VH: EVQLVESGGGLVQPGGSLRLSCAASGFTISGSWIHWVRQAPGKGLEWVAWIAPYSGATDYADSVKGRFTISADTSKNTAYLQMNSLRAEDTAVYYCAREGGLYWVFDYWGQGTLVTVSS VL: not shown	3	0.9	719	–	–
S9 Fab displayed on M13 phage (V0350-2b-S9) (Fab, also called S9 (Fab)-phage) light: not shown heavy: AYAEVQLVESGGGLVQPGGSLRLSCAASGFTISNYGIHWVRQAPGKGLEWVGRISPSNGSTYYADSVKGRFTISADTSKNTAYLQMNSLRAEDTAVYYCAKCSVRFAYWGQGTLVTVSSASTKGPSVFPLAPSSKSTSGGTAALGCLVKDYFPEPVTVSWNSGALTSGVHTFPAVLQSSGLYSLSSVVTVPSSSLGTQTYICNVNHKPSNTKVDKKVEPKSCDKTHL	> 1000	–	331	–	–
S16 F(ab)'2 displayed on M13 phage (V0350-4-S16) (other, also called S16-F(ab)'2-phage; F(ab)'2-S16 phage) light: SDIQMTQSPSSLSASVGDRVTITCRASQDVSTAVAWYQQKPGKAPKLLIYSASFLYSGVPSRFSGSGSGTDFTLTISSLQPEDFATYYCQQSYTTPPTFGQGTKVEIKRTVAAPSVFIFPPSDEQLKSGTASVVCLLNNFYPREAKVQWKVDNALQSGNSQESVTEQDSKDSTYSLSSTLTLSKADYEKHKVYACEVTHQGLSSPVTKSFNRGECGASSGMADPNRFRGKDLA heavy: AYAEVQLVESGGGLVQPGGSLRLSCAASGFTITNSDIHWVRQAPGKGLEWVATIYPYGGYTYYADSVKGRFTISADTSKNTAYLQMNSLRAEDTAVYYCARGGGMDGYVMDYWGQGTLVTVSSASTKGPSVFPLAPSSKSTSGGTAALGCLVKDYFPEPVTVSWNSGALTSGVHTFPAVLQSSGLYSLSSVVTVPSSSLGTQTYICNVNHKPSNTKVDKKVEPKSCDKTHG	114	32	–	–	–
S4 IgG (full-length human IgG1; LPG3-humankappaG6 and LPG4-humanHC-S4), expressed in CHO cells (antibody, V domains shown, also called S4 antibody) VH: EVQLVESGGGLVQPGGSLRLSCAASGFTISGSWIHWVRQAPGKGLEWVAWIAPYSGATDYADSVKGRFTISADTSKNTAYLQMNSLRAEDTAVYYCAREGGLYWVFDYWGQGTLVTVSS VL: DIQMTQSPSSLSASVGDRVTITCRASQDVSTAVAWYQQKPGKAPKLLIYSASFLYSGVPSRFSGSGSGTDFTLTISSLQPEDFATYYCQQSYTTPPTFGQGTKVEIKR	–	–	–	–	binding result [4]: binds
human STOP-1 S31-K243 with C-terminal His tag, baculovirus expressed (ligand, not shown: small tags and cut ends, Primarily trimeric by light scattering; also called S31-K243-His; S31humanSTOP-1-pAcGP67B) SEIPKGKQKAQLRQREVVDLYNGMCLQGPAGVPGRDGSPGANGIPGTPGIPGRDGFKGEKGECLRESFEESWTPNYKQCSWSSLNYGIDLGKIAECTFTKMRSNSALRVLFSGSLRLKCRNACCQRWYFTFNGAECSGPLPIEAIIYLDQGSPEMNSTINIHRTSSVEGLCEGIGAGLVDVAIWVGTCSDYPKGDASTGWNSVSRIIIEELPK	–	–	–	binds	–
human STOP-1 E89-K243 with C-terminal His tag, baculovirus expressed (ligand, not shown: small tags and cut ends, A mix of trimeric and hexameric complexes by light scattering; also called E89-K243-His; E89humanSTOP-1-pAcGP67B) EKGECLRESFEESWTPNYKQCSWSSLNYGIDLGKIAECTFTKMRSNSALRVLFSGSLRLKCRNACCQRWYFTFNGAECSGPLPIEAIIYLDQGSPEMNSTINIHRTSSVEGLCEGIGAGLVDVAIWVGTCSDYPKGDASTGWNSVSRIIIEELPK	–	–	–	binds	–
B1	–	–	–	binds	–
B2	–	–	–	binds	–
human STOP-1 delta-THD (residues 1-54, 94-243, plus His), expressed in CHO-psgb cells (ligand, also called ΔTHDh762HIP; M1-M54 fused to L94-K243-His) SEIPKGKQKAQLRQREVVDLYNGMLRESFEESWTPNYKQCSWSSLNYGIDLGKIAECTFTKMRSNSALRVLFSGSLRLKCRNACCQRWYFTFNGAECSGPLPIEAIIYLDQGSPEMNSTINIHRTSSVEGLCEGIGAGLVDVAIWVGTCSDYPKGDASTGWNSVSRIIIEELPKHHHHHHHH	–	–	–	binds	–
